Values joined by “and” are separate entries in the source; they are usually repeats but may differ in a detail not shown here. Identical values can stand only once.
B1: Nb4 (VHH)
VHH: QVQLVESGGGLVQAGGSLRLSCVASGSGFEPNAMGWYRQAPGKQRELVAGITSGGNANYADSVKGRFTISRDNVKNTVYLQMNSLKPEDTAVYYCNAVGPRFNPRGSPTNYWGQGTQVTVSS
B2: Nb21 (VHH)
VHH: QVQLVESGGGLVQAGGSLRLSCAVSGLGAHRVGWFRRAPGKEREFVAAIGANGGNTNYLDSVKGRFTISRDNAKNTIYLQMNSLKPQDTAVYYCAARDIETAEYTYWGQGTQVTVSS

Biological target: SARS-CoV-2 S protein (C-terminally truncated, on pseudotyped virus) (SARS-CoV-2 (Wuhan-Hu-1), UniProt P0DTC2 14-1254)
Test: cell-based or functional assay

Binder | IC50 (pseudovirus neutralization) | IC90 (pseudovirus neutralization)
B1 | 41 nM and 554 ng/ml | 4490 ng/ml and 332 nM
B2 | 1900 ng/ml and 141 nM | 3230 ng/ml and 239 nM

Reference: US20240132577A1 (US Dept. of Health and Human Services, published 2024)
